# Laboratory results taken from patent EP1644414B1 (Crucell Holland B.V., dated 2015).
# Positions count from the first letter of the chain named.
# B1: 03-015 (antibody, V domains shown)
# VH: EVQLVESGGGVVRPGGSLRLSCAASGFTFDDYGMSWVRQAPGKGLEWVSGINWNGGSTGYADSVKGRFTISRDNAKNSLYLQMNSLRAEDTAVYYCARGLSLRPWGQGTLVTVSS
# VL: SSELTQDPAESVALGQTVRITCQGDSLRSYYASWYQQKPGQAPVLVIYGKNNRPSGIPDRFSGSSSGNTASLTITGAQAEDEADYYCNSRDSSGNHVVFGGGTKLTVLG
# B2: 03-009 (antibody, V domains shown)
# VH: EVQLVESGGGVVQPGRSLRLSCAASGFTFSDYPMNWVRQAPGKGLEWVSSISGSGGSTYYADSVKGRFTISRDNSKNTLYLQMNSLRAEDTAVYYCAKGLFMVTTYAFDYWGQGTLVTVSS
# VL: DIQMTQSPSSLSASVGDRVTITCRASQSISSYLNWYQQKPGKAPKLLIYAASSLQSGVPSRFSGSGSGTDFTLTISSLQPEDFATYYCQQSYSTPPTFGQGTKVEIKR
# B3: 03-001 (antibody, V domains shown)
# VH: EVQLVESGGGLVKPGGSLRLSCAASGFTFSGYSMNWVRQAPGKGLEWVSSISGGSTYYADSRKGRFTISRDNSKNTLYLQMNNLRAEDTAVYYCARHRFRHVFDYWGQGTLVTVSS
# VL: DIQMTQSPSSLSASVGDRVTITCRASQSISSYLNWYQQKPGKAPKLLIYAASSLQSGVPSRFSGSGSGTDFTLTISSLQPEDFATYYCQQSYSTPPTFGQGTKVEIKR
# B4: 03-002 (antibody, V domains shown)
# VH: EVQLVESGGGLVKPGGSLRLSCAASGFTFSGYSMSWVRQAPGKGLEWVGRTRNKANSYTTEYAASVKGRFTISRDDSKNSLYLQMNSLKTEDTAVYYCARYYSRSLKAFDYWGQGTLVTVSS
# VL: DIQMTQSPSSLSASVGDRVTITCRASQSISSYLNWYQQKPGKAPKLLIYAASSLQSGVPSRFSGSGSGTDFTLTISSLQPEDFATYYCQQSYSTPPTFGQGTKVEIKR
# B5: 03-006 (antibody, V domains shown)
# VH: EVQLVESGGGLVQPGGSLRLSCAASGFTFSGYPMHWVRQAPGKGLEWVAVISYDGSNKYYADSVKGRFTISRDNSKNTLYLQMNSLRAEDTAVYYCAKDGSPRTPSFDYWGQGTLVTVSS
# VL: DIQMTQSPHSLSASVGDRVTITCRASQGISNYLAWYQQKPGKVPKLLIYAASTLQSGVPSRFSGSGSGTDFTLTISSLQPEDVGVYYCQQRFRTPVTFGQGTKLEIKR
# B6: 03-013 (antibody, V domains shown)
# VH: EVQLVESGGGLVQPGGSLRLSCAASGFTFSDHYMDWVRQAPGKGLEWVGRTRNKANSYTTEYAASVKGRFTISRDDSKNSLYLQMNSLKTEDTAVYYCAKGLTPLYFDYWGQGTLVTVSS
# VL: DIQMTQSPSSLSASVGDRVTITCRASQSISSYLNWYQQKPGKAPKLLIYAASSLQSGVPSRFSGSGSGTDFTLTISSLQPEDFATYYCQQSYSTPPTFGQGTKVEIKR
# B7: 03-014 (antibody, V domains shown)
# VH: B6 VH with K100R, L102I, T103S, L105F
# VL: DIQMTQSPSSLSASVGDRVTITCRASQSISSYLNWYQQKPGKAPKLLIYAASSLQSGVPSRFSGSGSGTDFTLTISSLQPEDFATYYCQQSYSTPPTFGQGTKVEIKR
# How the values were obtained:
# [1] = target: S318-510 fragment (amino acids 318-510 of the S protein of SARS-CoV strain Frankfurt 1) (SARS-CoV strain Frankfurt 1, UniProt P59594 318-510); assay: IgG ELISA on captured S318-510
# [2] = target: full length S protein of SARS-CoV expressed on HEK293T cells (SARS-CoV strain Frankfurt 1, UniProt P59594 14-1255); assay: flow cytometry, IgG 10 µg/ml
# [3] = target: S565 fragment (amino acids 1-565 of the S protein of SARS-CoV), myc-tagged (SARS-CoV strain Frankfurt 1, UniProt P59594 14-565); assay: IgG ELISA on captured S565
# [4] = target: spike protein of SARS-CoV as present in the SARS-CoV preparation (SARS-CoV strain Frankfurt 1, UniProt P59594 14-1255); assay: sandwich ELISA, detection with anti-spike rabbit sera IMG-542 and IMG-557
Binder,binding result [1],binding result [2],binding result [3],binding result [4]
B1,no binding,binds,no binding,
B2,no binding,,,
B3,no binding,,,
B4,no binding,,,
B5,binds,binds,binds,
B6,binds,binds,binds,binds
B7,binds,,binds,
